The values below come from patent US20260167721A1 (ABLEXIS, published 2026).

Test [1] has as its target T1, human CD3 (TCR/CD3 complex on the cell surface) (human, UniProt P07766 23-207; P04234 22-171; P09693 23-182).
T1 construct: whole, on cells; Native CD3 on human Pan-T cells or Jurkat wild-type cells; also called CD3 on Pan-T cells; CD3 on Jurkat WT cells
In words: flow cytometry, Pan-T cells, 1 ug/mL. (A flow cytometer gives signals particle by particle.)

For test [2], the target named is T1, human CD3 (TCR/CD3 complex on the cell …). The experiment in a line: flow cytometry, Pan-T cells, 10 ug/mL.
Test [3] has the same target. The experiment in a line: flow cytometry, Jurkat WT cells, 1 ug/mL.
For test [4] the target is unchanged. In words: flow cytometry, Jurkat WT cells, 10 ug/mL.
For test [5] the target is unchanged. In words: flow cytometry, Jurkat WT gMFI over Jurkat KO gMFI, 1 ug/mL.
For test [6] the target is unchanged. In words: flow cytometry, Jurkat WT gMFI over Jurkat KO gMFI, 10 ug/mL.

T1 sequence (P07766 23-207, chain 1 of 3): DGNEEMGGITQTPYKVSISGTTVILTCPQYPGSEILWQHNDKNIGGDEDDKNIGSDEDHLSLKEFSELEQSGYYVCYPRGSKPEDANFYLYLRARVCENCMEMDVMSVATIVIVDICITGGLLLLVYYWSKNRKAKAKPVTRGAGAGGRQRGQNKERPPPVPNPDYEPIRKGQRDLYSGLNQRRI
T1 sequence (P04234 22-171, chain 2 of 3): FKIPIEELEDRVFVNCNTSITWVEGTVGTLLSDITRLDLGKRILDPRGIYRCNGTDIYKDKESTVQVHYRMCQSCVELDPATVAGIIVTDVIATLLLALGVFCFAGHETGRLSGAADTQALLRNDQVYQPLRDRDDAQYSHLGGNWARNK
T1 sequence (P09693 23-182, chain 3 of 3): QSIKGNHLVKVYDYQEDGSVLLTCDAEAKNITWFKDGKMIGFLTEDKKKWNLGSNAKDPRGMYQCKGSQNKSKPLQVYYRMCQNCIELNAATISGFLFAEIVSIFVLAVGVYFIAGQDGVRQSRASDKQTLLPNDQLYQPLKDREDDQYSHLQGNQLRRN

B1: CD3 × CD33-BspAb78 (bispecific antibody)
chain 1: EVQLVESGGGLVKFGGSLRLSCAASGFTFSRYSMNWVRQAPGKCLEWVSSISSSSSYKYYADSVKGRFTISRDNAKNSLYLQMNSLRAEDTAVYYCAREGGNSHGMDVWGQGTTVTVSSGGGGSGGGGSGGGGSGGGGSNFMLTQPHSVSESPGKTVTISCTRSSGSIASNYVQWYQQRPGSSPTTVIYEDNQRPSGVPDRFSGSIDSSSNSASLTISGLKTEDEADYYCQSYDSSNRVFGCGTKLTVLDKTHTCPPCPAPEFEGGPSVFLFPPKPKDTLMISRTPEVTCVVVDVSHEDPEVKFNWYVDGVEVHNAKTKPREEQYNSTYRVVSVLTVLHQDWLNGKEYKCKVSNKALPASIEKTISKAKGQPREPQVYTLPPCREEMTKNQVSLWCLVKGFYPSDIAVEWESNGQPENNYKTTPPVLDSDGSFFLYSKLTVDKSRWQQGNVFSCSVMHEALHNHYTQKSLSLSPGK
chain 2: EVQLVQSGAEVKKPGSSVKVSCKASGYTITDSNIHWVRQAPGQSLEWIGYIYPYNGGTDYNQKFKNRATLTVDNPTNTAYMELSSLRSEDTAFYYCVNGNPWLAYWGQGTLVTVSSASTKGPSVFPLAPSSKSTSGGTAALGCLVKDYFPEPVTVSWNSGALTSGVHTFPAVLQSSGLYSLSSVVTVPSSSLGTQTYICNVNHKPSNTKVDKRVEPKSCDKTHTCPPCPAPEFEGGPSVFLFPPKPKDTLMISRTPEVTCVVVDVSHEDPEVKFNWYVDGVEVHNAKTKPREEQYNSTYRVVSVLTVLHQDWLNGKEYKCKVSNKALPASIEKTISKAKGQPREPQVCTLPPSREEMTKNQVSLSCAVKGFYPSDIAVEWESNGQPENNYKTTPPVLDSDGSFFLVSKLTVDKSRWQQGNVFSCSVMHEALHNRFTQKSLSLSPGK
chain 3: DIQLTQSPSTLSASVGDRVTITCRASESLDNYGIRFLTWFQQKPGKAPKLLMYAASNQGSGVPSRFSGSGSGTEFTLTISSLQPDDFATYYCQQTKEVPWSFGQGTKVEVKRTVAAPSVFIFPPSDEQLKSGTASVVCLLNNFYPREAKVQWKVDNALQSGNSQESVTEQDSKDSTYSLSSTLTLSKADYEKHKVYACEVTHQGLSSPVTKSFNRGEC
As to B1, the results for the “% Positive” value in test [1] and in test [2] were 98% and 99.8%, respectively. Further, the gMFI was found to be 66500 gMFI in test [1], 225000 gMFI in test [2], 20300 gMFI in test [3] and 28800 gMFI in test [4]. For the same molecule, the “Jurkat WT/KO (Fold)” value in test [5] was 6.6 fold; in test [6], 9.9 fold.

B2: CD3 × CD33-BspAb79 (bispecific antibody)
chain 1: QVQLQESGPGLVKPSETLSLTCTVSGGSISSYYWSWIRQPAGKCLEWIGRIYASGSTYYNPSLKSRVTMSVDTSKNQFSLKLSSVTAADTAVYYCAREKRSRLYFDYWGQGTLVTVSSGGGGSGGGGSGGGGSGGGGSNFMLTQPHSVSESPGKTVTISCTRSSGSIASNYVQWYQQRPGSSPTTVIYEDNQRPSGVPDRFSGSIDSSSNSASLTISGLKTEDEGDYYCQSYDRSNRVFGCGTKLTVLDKTHTCPPCPAPEFEGGPSVFLFPPKPKDTLMISRTPEVTCVVVDVSHEDPEVKFNWYVDGVEVHNAKTKPREEQYNSTYRVVSVLTVLHQDWLNGKEYKCKVSNKALPASIEKTISKAKGQPREPQVYTLPPCREEMTKNQVSLWCLVKGFYPSDIAVEWESNGQPENNYKTTPPVLDSDGSFFLYSKLTVDKSRWQQGNVFSCSVMHEALHNHYTQKSLSLSPGK
chain 2: EVQLVQSGAEVKKPGSSVKVSCKASGYTITDSNIHWVRQAPGQSLEWIGYIYPYNGGTDYNQKFKNRATLTVDNPTNTAYMELSSLRSEDTAFYYCVNGNPWLAYWGQGTLVTVSSASTKGPSVFPLAPSSKSTSGGTAALGCLVKDYFPEPVTVSWNSGALTSGVHTFPAVLQSSGLYSLSSVVTVPSSSLGTQTYICNVNHKPSNTKVDKRVEPKSCDKTHTCPPCPAPEFEGGPSVFLFPPKPKDTLMISRTPEVTCVVVDVSHEDPEVKFNWYVDGVEVHNAKTKPREEQYNSTYRVVSVLTVLHQDWLNGKEYKCKVSNKALPASIEKTISKAKGQPREPQVCTLPPSREEMTKNQVSLSCAVKGFYPSDIAVEWESNGQPENNYKTTPPVLDSDGSFFLVSKLTVDKSRWQQGNVFSCSVMHEALHNRFTQKSLSLSPGK
chain 3: DIQLTQSPSTLSASVGDRVTITCRASESLDNYGIRFLTWFQQKPGKAPKLLMYAASNQGSGVPSRFSGSGSGTEFTLTISSLQPDDFATYYCQQTKEVPWSFGQGTKVEVKRTVAAPSVFIFPPSDEQLKSGTASVVCLLNNFYPREAKVQWKVDNALQSGNSQESVTEQDSKDSTYSLSSTLTLSKADYEKHKVYACEVTHQGLSSPVTKSFNRGEC
Consider B2, for which the “% Positive” value in test [1] came out at 99.3%; in test [2], 99.4%. Further, the gMFI in test [1] came to 34700 gMFI; in test [2] it was 166000 gMFI; in test [3], 8830 gMFI; in test [4], 20400 gMFI. For the same molecule, the figures for the “Jurkat WT/KO (Fold)” value in test [5] and in test [6] were 4 fold and 8.9 fold, respectively.

B3: CD3 × CD33-BspAb80 (bispecific antibody)
chain 1: QVQLQESGPGLVKPSETLSLTCTVSGGSISSYYWSWIRQPAGKCLEWIGRIYTSGSTKYNPSLKSRVTMSVDTSKNQFSLKLISVTAADTAVYFCARERIRDLYFDYWGQGTLVTVSSGGGGSGGGGSGGGGSGGGGSNFMLTQPHSVSESPGKTVTISCTRTSGSIASNYVQWYQQRPGSSPTTVIYEDNQRPSGVPDRFSGSIDSSSNSASLTISGLKTEDEAAYYCQSYDRSNRVFGCGTKLTVLDKTHTCPPCPAPEFEGGPSVFLFPPKPKDTLMISRTPEVTCVVVDVSHEDPEVKFNWYVDGVEVHNAKTKPREEQYNSTYRVVSVLTVLHQDWLNGKEYKCKVSNKALPASIEKTISKAKGQPREPQVYTLPPCREEMTKNQVSLWCLVKGFYPSDIAVEWESNGQPENNYKTTPPVLDSDGSFFLYSKLTVDKSRWQQGNVFSCSVMHEALHNHYTQKSLSLSPGK
chain 2: EVQLVQSGAEVKKPGSSVKVSCKASGYTITDSNIHWVRQAPGQSLEWIGYIYPYNGGTDYNQKFKNRATLTVDNPTNTAYMELSSLRSEDTAFYYCVNGNPWLAYWGQGTLVTVSSASTKGPSVFPLAPSSKSTSGGTAALGCLVKDYFPEPVTVSWNSGALTSGVHTFPAVLQSSGLYSLSSVVTVPSSSLGTQTYICNVNHKPSNTKVDKRVEPKSCDKTHTCPPCPAPEFEGGPSVFLFPPKPKDTLMISRTPEVTCVVVDVSHEDPEVKFNWYVDGVEVHNAKTKPREEQYNSTYRVVSVLTVLHQDWLNGKEYKCKVSNKALPASIEKTISKAKGQPREPQVCTLPPSREEMTKNQVSLSCAVKGFYPSDIAVEWESNGQPENNYKTTPPVLDSDGSFFLVSKLTVDKSRWQQGNVFSCSVMHEALHNRFTQKSLSLSPGK
chain 3: DIQLTQSPSTLSASVGDRVTITCRASESLDNYGIRFLTWFQQKPGKAPKLLMYAASNQGSGVPSRFSGSGSGTEFTLTISSLQPDDFATYYCQQTKEVPWSFGQGTKVEVKRTVAAPSVFIFPPSDEQLKSGTASVVCLLNNFYPREAKVQWKVDNALQSGNSQESVTEQDSKDSTYSLSSTLTLSKADYEKHKVYACEVTHQGLSSPVTKSFNRGEC
Consider B3, for which the results for the “% Positive” value in test [1] and in test [2] were 99.7% and 99.8%, respectively. The gMFI is 330000 gMFI in test [1], 486000 gMFI in test [2], 50500 gMFI in test [3] and 59400 gMFI in test [4]. Moreover, the results for the “Jurkat WT/KO (Fold)” value in test [5] and in test [6] were 13.1 fold and 15 fold, respectively.

B4: CD3 × CD33-BspAb81 (bispecific antibody)
chain 1: QVQLQESGPGLVKPSQTLSLTCTVSGGSISSGGYYWSWIRQHPGKCLEWIGYIYYSGSTYYNPSLKSRVTISVDTSKDQFSLKLSSVTAADTAVYYCARERKTSLPFDIWGQGTMVTVSSGGGGSGGGGSGGGGSGGGGSNFMLTQPHSVSESPGKTVTISCTRSSGSIASNYVQWYQQRPGSSPTTVIYEDNQRPSGVPDRFSGSIDSSSNSASLTISGLKTEDEAYYYCQSFDSSNRVFGCGTKLTVLDKTHTCPPCPAPEFEGGPSVFLFPPKPKDTLMISRTPEVTCVVVDVSHEDPEVKFNWYVDGVEVHNAKTKPREEQYNSTYRVVSVLTVLHQDWLNGKEYKCKVSNKALPASIEKTISKAKGQPREPQVYTLPPCREEMTKNQVSLWCLVKGFYPSDIAVEWESNGQPENNYKTTPPVLDSDGSFFLYSKLTVDKSRWQQGNVFSCSVMHEALHNHYTQKSLSLSPGK
chain 2: EVQLVQSGAEVKKPGSSVKVSCKASGYTITDSNIHWVRQAPGQSLEWIGYIYPYNGGTDYNQKFKNRATLTVDNPTNTAYMELSSLRSEDTAFYYCVNGNPWLAYWGQGTLVTVSSASTKGPSVFPLAPSSKSTSGGTAALGCLVKDYFPEPVTVSWNSGALTSGVHTFPAVLQSSGLYSLSSVVTVPSSSLGTQTYICNVNHKPSNTKVDKRVEPKSCDKTHTCPPCPAPEFEGGPSVFLFPPKPKDTLMISRTPEVTCVVVDVSHEDPEVKFNWYVDGVEVHNAKTKPREEQYNSTYRVVSVLTVLHQDWLNGKEYKCKVSNKALPASIEKTISKAKGQPREPQVCTLPPSREEMTKNQVSLSCAVKGFYPSDIAVEWESNGQPENNYKTTPPVLDSDGSFFLVSKLTVDKSRWQQGNVFSCSVMHEALHNRFTQKSLSLSPGK
chain 3: DIQLTQSPSTLSASVGDRVTITCRASESLDNYGIRFLTWFQQKPGKAPKLLMYAASNQGSGVPSRFSGSGSGTEFTLTISSLQPDDFATYYCQQTKEVPWSFGQGTKVEVKRTVAAPSVFIFPPSDEQLKSGTASVVCLLNNFYPREAKVQWKVDNALQSGNSQESVTEQDSKDSTYSLSSTLTLSKADYEKHKVYACEVTHQGLSSPVTKSFNRGEC
For the molecule B4, the “% Positive” value in test [1] was found to be 99.7%; in test [2], 99.8%. Also, the gMFI in test [1] was 79900 gMFI; in test [2] it was 369000 gMFI; in test [3], 24100 gMFI; in test [4] it was 55100 gMFI. For the same molecule, the entries for the “Jurkat WT/KO (Fold)” value in test [5] and in test [6] were 7.1 fold and 13.5 fold, respectively.
